One block for each substance: values may come before it.
Experiments:
[1] = biological target: human insulin receptor isoform A (IR-A) on IM-9 lymphocytes (human (endogenous in IM-9)) (UniProt P06213); experiment: radioligand binding; dissociation kinetics without cold ligand; IM-9 cells (3x10^7/mL) preincubated with about 0.03 nM 125I-labelled ligand at 15 °C ([…] insulin and analog, 4 h IGF-1), washed, diluted 40 times, 15 °C; one phase exponential decay
[2] = biological target: human IGF-1 receptor (IGF-1R) on CHO-K1 cells stably transfected with pcDNA3-IGF-1R (human) (UniProt P08069); experiment: radioligand binding; association kinetics; CHO-R+ cells (10^7/mL) in HEPES binding buffer pH 7.6 with about 0.03 nM 125I-labelled ligand at 15 °C; cells pelleted at time points; fit: association kinetics, one concentration of hot (GraphPad Prism 5) with the dissociation rate set; apparent constants
[3] = biological target: human IGF-1 receptor (IGF-1R) on CHO-K1 cells stably transfected with pcDNA3-IGF-1R (human) (UniProt P08069); experiment: radioligand binding; dissociation kinetics without cold ligand; CHO-R+ cells (3x10^7/mL) preincubated with about 0.03 nM 125I-labelled ligand at 15 °C ([…] analog and IGF-1, 7 h insulin), washed, diluted 40 times, 15 °C; one phase exponential decay
[4] = biological target: human insulin receptor isoform A (IR-A) on IM-9 lymphocytes (human (endogenous in IM-9)) (UniProt P06213); experiment: radioligand binding; association kinetics; IM-9 cells (10^7/mL) in HEPES binding buffer pH 7.6 with about 0.03 nM 125I-labelled ligand at 15 °C; cells pelleted at time points; fit: association kinetics, one concentration of hot (GraphPad Prism 5) with the dissociation rate set; apparent constants
[5] = biological target: IGF-1 receptor (in transfected mouse embryonic fibroblasts R+39) (human) (UniProt P08069); experiment: radioligand binding; whole-cell receptor-binding assay on IGF-1R null mouse embryonic fibroblasts stably transfected with human IGF-1R; each binding curve in duplicate, Kd from at least three curves; details in the supporting information
[6] = biological target: insulin receptor isoform B (human) (UniProt P06213); experiment: radioligand binding; whole-cell receptor-binding assay on IGF-1R null mouse embryonic fibroblasts stably transfected with human IR-B; each binding curve in duplicate, Kd from at least three curves; details in the supporting information
[7] = biological target: IGF-1 receptor (in transfected mouse embryonic fibroblasts R+39) (human) (UniProt P08069)
[8] = biological target: insulin receptor isoform A (human (endogenous in IM-9)) (UniProt P06213); experiment: radioligand binding; whole-cell receptor-binding assay on human IM-9 lymphocytes (containing IR-A); each binding curve in duplicate, Kd from at least three curves; details in the supporting information

Sequence of [Gly^B31, Tyr^B32]-insulin (P01308 90-110): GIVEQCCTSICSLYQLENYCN
Sequence of [Gly^B31, Tyr^B32]-insulin (P01308 other isoform, or with tags, fused parts or gaps): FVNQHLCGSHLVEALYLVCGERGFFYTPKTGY

koff [1]: 2.83e-05 s⁻¹ | kon [2]: 7.83e+07 M⁻¹ s⁻¹ | koff [3]: 0.000107 s⁻¹ | kon [4]: 5.87e+07 M⁻¹ s⁻¹
Substance: 125I-[D-HisB24, GlyB31, TyrB32]-insulin (ligand)

Kd [5]: 0.89 nM
Substance: [D-His^B24, Gly^B31, Tyr^B32]-insulin (from UniProt P01308 90-110) (ligand)

Kd [6]: 0.3 nM
Substance: [D-His^B24]-des-(B27-B30)-tetrapeptide-B26-carboxamide insulin (from UniProt P01308 90-110) (ligand)

autophosphorylation of IGF-1R (immunoblot), IGF-1R-transfected mouse fibroblasts, 10 nM ligand, against insulin; not significant in the analysis of variance [7]: 3 fold
Substance: [Gly^B31, Tyr^B32]-insulin (from UniProt P01308 90-110; P01308 25-54) (ligand)

autophosphorylation of IGF-1R (immunoblot), IGF-1R-transfected mouse fibroblasts, 10 nM ligand, against insulin; not significant in the analysis of variance [7]: 3 fold
Substance: [Tyr^B25, Phe^B26, Asn^B27, Lys^B28, Pro^B29, Gly^B31, Tyr^B32]-insulin (from UniProt P01308 90-110) (ligand)

Kd [8]: 31.5 nM | Kd [6]: 224 nM
Substance: human insulin-like growth factor 1 (from UniProt P05019 49-118) (ligand)

Kd [8]: 2.92 nM | Kd [5]: 2.32 nM | Kd [6]: 35.5 nM
Substance: insulin-like growth factor 2 (from UniProt P01344 25-91) (ligand)

— PMC6204900
